According to the supplement of paper PMC9732359:
± gives the uncertainty stated by the source.

Experiment: protein stability index of a GFP-peptide fusion (yeast GPS) (PSI 1-4); higher = more stable; sorted into four equal gates, so the index is relative within each strain
Method in brief: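 Mid-log yeast cultures in leucine-free medium, carrying a pooled plasmid library, were sorted into four equal gates by their GFP/Cherry fluorescence ratio. Each plasmid expressed Cherry along with GFP fused upstream of a tiled 17-residue yeast protein peptide. Plasmids recovered from each gate were PCR-amplified and Illumina-sequenced, with reads assigned to strains by barcodes. The protein stability index was obtained by summing each gate's read frequency weighted by its gate number.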

| Sequence | protein stability index (doa10∆) | protein stability index (pdr5∆) | protein stability index (san1∆) | protein stability index (ubr1∆) |
| --- | --- | --- | --- | --- |
| QSESRQKRQLHDISKTE [SNU114] | 3 ± 0.096 | 2.87 ± 0.071 | 3.13 ± 0.073 | 3.04 ± 0.046 |
| AQKCGWTIPHKKWNDLK [SIR2] | 3.25 ± 0.057 | 3.26 ± 0.086 | 3.26 ± 0.058 | 2.94 ± 0.038 |
| IENMTKEKVSNGGVGVD [FAS2] | 3.23 ± 0.088 | 3.16 ± 0.1 | 3.33 ± 0.087 | 3.11 ± 0.063 |
| LTAIPILLEPIYEVDIT [SNU114] | 2.24 ± 0.047 | 1.75 ± 0.041 | 1.94 ± 0.054 | 2.19 ± 0.038 |
| LMRTFLYTLAQETEGTN [SIR3] | 2.63 ± 0.12 | 2.63 ± 0.098 |  | 2.35 ± 0.11 |
| LSCEKITHYAVRGGNIE [RRI1] | 2.37 ± 0.062 | 2.3 ± 0.078 | 2.51 ± 0.08 | 2.19 ± 0.047 |
| LPSDRCSKAMGDLASLV [RPP1] |  |  | 3.15 ± 0.12 |  |
| IINSTALMKEKDIRSTL [RPC82] | 3.12 ± 0.19 | 3 ± 0.099 | 2.97 ± 0.093 | 3.25 ± 0.09 |
| RDKKEKKQAQKQTKLRK [SMB1] | 3.43 ± 0.072 | 3.53 ± 0.072 | 3.25 ± 0.076 | 3.4 ± 0.045 |
| NKLMEKDFQVNKEIKPY [SIR4] | 3.35 ± 0.059 | 3.38 ± 0.054 | 3.12 ± 0.059 | 3.28 ± 0.047 |
| EHGMNAPSVPEFIYLTK [SNF2] | 3.21 ± 0.092 | 3.28 ± 0.077 | 2.91 ± 0.069 | 3.15 ± 0.059 |
| SRGESDDSLNRLAQNDG [RPS21A] | 2.72 ± 0.19 | 2.9 ± 0.14 |  |  |
| AAQTLLQMDYKDDMKVD [PRE9] | 3.3 ± 0.1 | 3.3 ± 0.068 | 3.25 ± 0.063 | 3.26 ± 0.084 |
| TSTEKLYKLNDKIAVAV [PRE9] | 2.84 ± 0.072 | 2.93 ± 0.081 | 3.1 ± 0.081 | 2.95 ± 0.068 |
| LYNFLHKYVLTLQLYMV [RGR1] | 2.04 ± 0.058 | 1.43 ± 0.042 | 1.78 ± 0.13 | 1.51 ± 0.039 |
| ILEELDFVRNELNDIDT [SMC3] | 3.08 ± 0.2 |  |  |  |
| VARIYASFNDTFVHVTD [RPS14A] | 1.96 ± 0.06 | 1.73 ± 0.04 | 2.12 ± 0.07 | 2.2 ± 0.055 |
| LTFHTLKKANIIYHTTF [YLR018C/POM34] | 1.9 ± 0.036 | 2.25 ± 0.038 | 2 ± 0.05 | 1.98 ± 0.028 |
| DLSYIEFLFESLKNDLP [ECM29] | 2.84 ± 0.13 | 2.65 ± 0.14 | 2.78 ± 0.083 | 3.13 ± 0.12 |
| MHRKSLRRASATVPSAP [YAR002W/NUP60] | 2.64 ± 0.071 | 2.82 ± 0.092 | 2.39 ± 0.064 | 2.74 ± 0.063 |
| IRKIVRKDENQFSYVDS [AAR2] | 3.18 ± 0.12 | 3.14 ± 0.12 | 3.03 ± 0.073 | 3.12 ± 0.076 |
| DVPSEDDPTQLVSRGGC [RPO21] | 3.61 ± 0.28 | 3.06 ± 0.15 | 2.97 ± 0.21 | 3.01 ± 0.15 |
| VTRFDEKQIEELLDNCI [SRB6] | 2.9 ± 0.21 |  | 3.21 ± 0.16 | 3.33 ± 0.12 |
| EDETLRRIKEAEENLKK [YIL149C/MLP2] | 3.54 ± 0.23 | 3.54 ± 0.15 | 3.26 ± 0.076 | 3.69 ± 0.13 |
| ELALLNHWRQNKGRAVY [BRR2] | 1.21 ± 0.21 | 1.21 ± 0.13 | 1.21 ± 0.29 | 1.1 ± 0.083 |
| STKELKFSDIIQGISKM [BRN1] | 3.16 ± 0.098 | 3.33 ± 0.084 | 3.18 ± 0.072 | 3.35 ± 0.085 |

| Sequence | protein stability index (doa10∆) | protein stability index (pdr5∆) | protein stability index (san1∆) | protein stability index (ubr1∆) |
| --- | --- | --- | --- | --- |
| LLPFVKGNVGFVFTNEP [RPP0] |  | 1.77 ± 0.26 |  | 1.84 ± 0.17 |
| SSSDFRLHYYPKDPSNV [BRR2] | 3.21 ± 0.066 | 3.29 ± 0.06 | 3.47 ± 0.052 | 3.15 ± 0.042 |
| HRIGQKKQVHVYRFVTE [ISW2] | 2.14 ± 0.054 | 2.33 ± 0.051 | 2.28 ± 0.075 | 2.12 ± 0.038 |
| PVPSDSTRKKGGRRGRR [RPS14B] | 3.22 ± 0.092 | 3.45 ± 0.074 | 3.31 ± 0.069 | 3.27 ± 0.071 |
| NLRRHSDIVLDKKVTLI [SIN4] | 2.47 ± 0.05 | 3.05 ± 0.042 | 2.87 ± 0.034 | 2.68 ± 0.038 |
| RQSSVGSLNATNFSPTP [SNF2] | 2.75 ± 0.049 | 2.98 ± 0.048 | 2.54 ± 0.044 | 2.96 ± 0.051 |
| GYVIKVFNNGIVVLVPK [DIS3] | 2.59 ± 0.092 | 2.38 ± 0.079 | 2.39 ± 0.077 | 2.82 ± 0.067 |
| MERFSVLCNSNISKSRA [RRP6] | 2.42 ± 0.066 | 2.46 ± 0.096 | 1.98 ± 0.084 | 2.12 ± 0.056 |
| ITDKTIKAFMDSTIGNS [IRR1] | 2.54 ± 0.15 | 2.62 ± 0.14 | 3.4 ± 0.15 | 2.41 ± 0.14 |
| GDMTNSDAQSNLGSNVR [REC8] | 2.92 ± 0.28 | 3.52 ± 0.15 | 2.87 ± 0.17 | 3.25 ± 0.096 |
| EHNPSAHTASVGVVFGS [COR1] | 3.21 ± 0.16 | 3.24 ± 0.13 | 2.88 ± 0.14 | 2.22 ± 0.27 |
| MFTATMTPVIEKIAAGY [PRP28] | 2.2 ± 0.13 | 1.81 ± 0.11 | 1.5 ± 0.15 | 2.35 ± 0.076 |
| ALGEFADWDPESMAYTA [YML031W/NDC1] | 3.52 ± 0.14 | 3.54 ± 0.089 | 3.36 ± 0.083 | 3.26 ± 0.064 |
| IEEEIFDDSSRIVNHKT [LIN1] | 3.14 ± 0.083 | 2.91 ± 0.1 | 3.11 ± 0.072 | 2.97 ± 0.071 |
| LCLEKLMCLSSKYCEKS [YCS4] | 1.55 ± 0.051 | 2.34 ± 0.087 | 2.27 ± 0.18 | 1.92 ± 0.059 |
| EEQLDLLSAILDPSKSK [MED11] | 3.09 ± 0.099 | 3.18 ± 0.12 | 3.32 ± 0.11 | 3.64 ± 0.2 |
| TLKKNNVAVDIINFGEI [RPN10] | 2.97 ± 0.081 | 3.01 ± 0.092 | 3.02 ± 0.1 | 2.74 ± 0.063 |
| VEEYTWSSLLNEGLVEY [RPB2] |  | 3.2 ± 0.18 | 3.11 ± 0.089 |  |
| RGSLDSEHVFDYFFYFL [NUT1] | 2.8 ± 0.059 | 2.59 ± 0.042 | 2.71 ± 0.041 | 3.16 ± 0.032 |
| NCKKKKKRKKKNKSAID [RMP1] | 2.57 ± 0.1 | 2.67 ± 0.13 | 2.79 ± 0.089 | 3.37 ± 0.16 |
| QERQRQIQKNGPEITPE [PRP8] | 2.88 ± 0.11 | 3.2 ± 0.11 | 2.77 ± 0.11 | 2.85 ± 0.092 |
| SREIAQPSSSRYNGGND [SMB1] | 3.19 ± 0.087 | 3.22 ± 0.071 | 3.22 ± 0.053 | 3.31 ± 0.055 |
| HVESDKITAKTQHEEEE [IRR1] | 2.85 ± 0.064 | 2.96 ± 0.088 | 3.09 ± 0.092 | 2.81 ± 0.11 |
| FVYNKVNETEAILYTKP [YGR119C/NUP57] | 2.76 ± 0.084 | 3.06 ± 0.072 | 2.74 ± 0.056 | 2.97 ± 0.07 |
| IADKTTYDKETITDLIE [SIR4] | 3.3 ± 0.063 | 3.33 ± 0.064 | 3.42 ± 0.051 | 3.27 ± 0.05 |
| DDDTFSDREMAALIASK [RPN2] | 1.6 ± 0.079 | 1.55 ± 0.056 | 1.32 ± 0.12 | 1.79 ± 0.063 |
